# In patent publication US20220372200:
# T1: KLA peptide acrylamide monomer (KLAAm)
# T1 sequence: KLAKLAKKLAKLAK
# T2: poly(KLAAm10-co-DMA10)
# T2 sequence: KLAKLAKKLAKLAK
# T3: poly[(KLAAm10-co-DMA10)-b-(DAAm140-co-DMA60)] (NP4)
# T3 sequence: KLAKLAKKLAKLAK
# T4: poly[(KLAAm10-co-DMA10)-b-(DAAm280-co-DMA120)] (NP5)
# T4 sequence: KLAKLAKKLAKLAK
# T5: poly[(KLAAm10-co-DMA30)-b-(DAAm140-co-DMA60)] (NP2)
# T5 sequence: KLAKLAKKLAKLAK
# T6: poly[(KLAAm10-co-DMA30)-b-(DAAm280-co-DMA120)] (NP3)
# T6 sequence: KLAKLAKKLAKLAK
# T7: poly[(KLAAm10-co-DMA30)-b-(DAAm70-co-DMA30)] (NP1)
# T7 sequence: KLAKLAKKLAKLAK
# T8: poly(PepAm21-co-DMA71) (P4)
# T8 chain: GPLGLAGG
# B1: thermolysin (protein)
# chain: ITGTSTVGVGRGVLGDQKNINTTYSTYYYLQDNTRGNGIFTYDAKYRTTLPGSLWADADNQFFASYDAPAVDAHYYAGVTYDYYKNVHNRLSYDGNNAAIRSSVHYSQGYNNAFWNGSQMVYGDGDGQTFIPLSGGIDVVAHELTHAVTDYTAGLIYQNESGAINEAISDIFGTLVEFYANKNPDWEIGEDVYTPGISGDSLRSMSDPAKYGDPDHYSKRYTGTQDNGGVHINSGIINKAAYLISQGGTHYGVSVVGIGRDKLGKIFYRALTQYLTPTSNFSQLRAAAVQSATDLYGSTSQEVASVKQAFDAVGVK
# How the values were obtained:
# [1] = test system: T1, KLA peptide acrylamide monomer (KLAAm)
# [2] = test system: T2, poly(KLAAm10-co-DMA10)
# [3] = test system: T3, poly[(KLAAm10-co-DMA10)-b-(DAAm140-co-DMA60)] (NP4)
# [4] = test system: T4, poly[(KLAAm10-co-DMA10)-b-(DAAm280-co-DMA120)] (NP5)
# [5] = test system: T5, poly[(KLAAm10-co-DMA30)-b-(DAAm140-co-DMA60)] (NP2)
# [6] = test system: T6, poly[(KLAAm10-co-DMA30)-b-(DAAm280-co-DMA120)] (NP3)
# [7] = test system: T7, poly[(KLAAm10-co-DMA30)-b-(DAAm70-co-DMA30)] (NP1)
# [8] = target: T8, poly(PepAm21-co-DMA71) (P4)
Molecule,percent cleavage by HPLC [1],percent of side-chain peptides cleaved by HPLC [2],percent of KLA peptide left uncleaved after 1 h (HPLC) [3],percent of KLA peptide left uncleaved after 1 h (HPLC) [4],percent of KLA peptide left uncleaved after 1 h (HPLC) [5],percent of KLA peptide left uncleaved after 1 h (HPLC) [6],percent of KLA peptide left uncleaved after 1 h (HPLC) [7],cleavage of side-chain peptides monitored by HPLC [8]
trypsin,"the KLA peptide underwent fast degradation, reaching 100% cleavage within 1 h",more than 90% of the side-chain peptides were cleaved within 1 h,more than 70% of KLA peptide survived during the first hour of cleavage,more than 70% of KLA peptide survived during the first hour of cleavage,more than 70% of KLA peptide survived during the first hour of cleavage,more than 70% of KLA peptide survived during the first hour of cleavage,more than 70% of KLA peptide survived during the first hour of cleavage,
B1,,,,,,,,the polypeptide brushes were rapidly cleaved within 1 hour under the investigated conditions
